Tests used:
Format in all cases: in vivo, Lewis rat
[1] = Example 1: bodyweights and non-specific clinical observations; details: Day 11 to Day 21, compared to the IRBP-administered group
From the text: Adult female Lewis rats were randomly allocated to experimental groups and allowed to acclimatise for one week. […] From Day 0 until the end of the experiment, animals were weighed daily. From Day 0 until the end of the experiment, animals were scored daily for clinical signs of experimental autoimmune encephalomyelitis to include limpness, paresis and/or paralysis of the tail, hind limbs and/or front limbs. From Day 0 until the end of the experiment, animals were scored twice weekly for clinical signs of uveitis. On Day 21 (Groups 1, 2 and 3) or Day 28 (Groups 4 and 5), animals were culled and the following samples were dissected out and stored in tissue fixative for optional histopathology analysis: brain, spinal cord, right and left eyes.
From Day 0 until the end of the experiment, animals were checked daily for non-specific clinical signs to include abnormal posture (hunched), abnormal coat condition (piloerection) and abnormal activity levels (reduced or increased activity).
From Day 0 until the end of the experiment, animals were weighed daily.

[2] = system: experimental autoimmune encephalomyelitis (EAE) in Lewis rats; assay: Example 1: development of experimental autoimmune encephalomyelitis (EAE) after immunisation; details: paralytic symptom scoring 0-6
Protocol: (§1) Adult female Lewis rats were randomly allocated to experimental groups and allowed to acclimatise for one week. On Day 0, animals were administered by subcutaneous injection with 200 microliters of an emulsion containing 20 micrograms of IRBP1177-1191 (Cambridge Bioscience, UK) and/or 100 micrograms of human (Fitzgerald Industries International, MA, US) or guinea pig Myelin Basic Protein (gpMBP) in incomplete Freund's adjuvant (Sigma, UK) supplemented with 5 mg/ml Mycobacterium Tuberculosis H37Ra ([…]) (Becton Dickenson, UK). From Day 0 until the end of the experiment, animals were weighed daily. From Day 0 until the end of the experiment, animals were scored daily for clinical signs of experimental autoimmune encephalomyelitis to include limpness, paresis and/or paralysis of the tail, hind limbs and/or front limbs. From Day 0 until the end of the experiment, animals were scored twice weekly for clinical signs of uveitis. On Day 21 (Groups 1, 2 and 3) or Day 28 (Groups 4 and 5), animals were culled and the following samples were dissected out and stored in tissue fixative for optional histopathology analysis: brain, spinal cord, right and left eyes.
Guinea pig MBP may induce Experimental autoimmune encephalomyelitis (EAE) in Lewis rats, a model for multiple sclerosis (MS). In this experiment, severe EAE was developed in Lewis rats immunised with gpMBP alone (incidence 8/8 rats; mean max score 3.5) or in combination with IRBP peptide (incidence 8/8 rats; mean max score 3.9) using the scoring system for paralytic symptoms: 0) no abnormality, (0.5) partial tail limpness, (1) complete tail limpness, (2) one hind limb paresis, (2.5) two hind limbs paresis, (3) one hind limb paralysis, (4) two hind limb paralysis, (5) incontinence and (6) moribund.

[3] = system: experimental autoimmune uveitis (EAU) in Lewis rats; assay: Example 1: development of uveitis (EAU) after immunisation with IRBP, gpMBP and/or huMBP; details: for Maximum Score of EAU: TEFI retinal score, maximum possible 6; for clinical signs of anterior uveitis: visual score 0-3, compared to the gpMBP-administered group, data until Day 21
Protocol: This study aimed at studying the effect, in Lewis rats, of immunisations with guinea pig myelin basic protein (gpMBP), human myelin basic protein (huMBP) and/or interphotoreceptor retinoid-binding protein with regard to development of encephalomyelitis (EAE) and/or uveitis (EAU).
as §1
From Day 0 until the end of the experiment, animals were visually scored twice per week for clinical signs of anterior uveitis using the following scoring system. The maximum possible score was 3. Data were graphed (Mean±SEM).
From Day 0 until the end of the experiment, animals were scored twice per week for clinical signs of intermediate and posterior uveitis. Retinal images were captured using TEFI in non-anaesthetised but restrained animals following pupil dilatation using Tropicamide 1% then Phenylephrine hydrochloride 2.5%. Retinal images were scored using the following system. The maximum possible score was 6. Data were graphed (Mean±SEM).
Animals with an average score for both eyes greater than 0.5 on at least two consecutive TEFI sessions (see FIG. 2) or a score greater than 1.0 on any occasion were considered to have developed clinical signs of posterior uveitis. Based on this criterion, the incidence of EAU was:
Due to the lack of pigmentation in the retina of Lewis rats, the scoring system below was used. This is due to the inability to identify areas of infiltration causing haziness and cuffing on a pale background. Inflammation of the optic disc could not be clearly identified and was not therefore scored, also, no structural damage was observed. Infiltration of retinal vessels could be identified by engorged appearance on a scale of 0-3, mild to severe. Retinal inflammation was identified by the appearance of small to large areas of redness caused by increase in vascularisation also on a scale of 0-3, giving a total possible score of 6.
Clinical signs of anterior uveitis were also observed during the experiment. Data collected until Day 21 were analysed by two-way ANOVA followed by Dunnett's post-test for multiple comparisons between experimental groups.

[4] = Lewis rats immunised SC Day 0 in CFA

With “ADGSSWEGVGVVPDV [IRBP, reference compound]” as the molecule, how does the bodyweight loss [1] read?
The bodyweight loss was “no significant bodyweight loss”.

And the EAE incidence [2]?
The EAE incidence was 2/8.

What about the “EAE mean max score” value [2] of the same molecule?
The value was 1.0.

What about the “Onset (Day) of EAU” value [3, 4] of the same molecule?
Its value is 10.5 ± 0.5 days.

What about the “Incidence of EAU (clinical signs of posterior uveitis)” value ([3]; Lewis rats immunised SC Day 0 in CFA, TEFI score criterion, affected/total in brackets) of the same molecule?
The value was 100% (8/8).

What about the “Maximum Score of EAU” value [3] of the same molecule?
Its value is 5.6 ± 0.3.

What about the “clinical signs of anterior uveitis” value [3] of the same molecule?
The value was “observed from Day 11”.

B1: gpMBP: guinea pig myelin basic protein (SEQ ID NO: 6), immunising antigen (protein, listed as Cavia porcellus)
chain: ASQKRPSQRHGSKYLATASTMDHARHGFLPRHRDTGILDSIGRFFGSDRAAPKRGSGKDSHHAARTTHYGSLPQKSQRSQDENPVVHFFKNIVTPRTPPPSQGKGRGLSLSRFSWGAEGQKPGFGYGGRADYKSKGFKGAHDAQGTLSKIFKLGGRDSRSGSPMARR
Which results are given for B1?
bodyweight loss [1]: significant bodyweight loss; EAE incidence [2]: 8/8; EAE mean max score [2]: 3.5; Onset (Day) of EAU [3, 4]: 11.5 ± 0.5 days; Maximum Score of EAU [3]: 1.1 ± 0.2; severity of the clinical signs of EAU compared to the other immunised groups ([3]; vs IRBP (p<0.001), IRBP and gpMBP (p<0.01), IRBP and huMBP (p<0.01), huMBP (p<0.05)): significantly lower

B2: huMBP: human myelin basic protein, immunising antigen (protein, UniProt P02686 1-304, looked up)
Myelin basic protein: MGNHAGKRELNAEKASTNSETNRGESEKKRNLGELSRTTSEDNEVFGEADANQNNGTSSQDTAVTDSKRTADPKNAWQDAHPADPGSRPHLIRLFSRDAPGREDNTFKDRPSESDELQTIQEDSAATSESLDVMASQKRPSQRHGSKYLATASTMDHARHGFLPRHRDTGILDSIGRFFGGDRGAPKRGSGKDSHHPARTAHYGSLPQKSHGRTQDENPVVHFFKNIVTPRTPPPSQGKGRGLSLSRFSWGAEGQRPGFGYGGRASDYKSAHKGFKGVDAQGTLSKIFKLGGRDSRSGSPMARR
With B2 as the molecule, how does the bodyweight loss [1] read?
Its bodyweight loss is “no significant bodyweight loss”.

What about the EAE incidence [2] of the same molecule?
Its EAE incidence is 3/14.

And the “EAE mean max score” value [2]?
Its value is 1.0.

What about the “Onset (Day) of EAU” value [3, 4] of the same molecule?
The value was 10.2 ± 0.7 days.

What about the “Maximum Score of EAU” value [3] of the same molecule?
Its value is 4.1 ± 0.5.

And the “clinical signs of anterior uveitis” value [3]?
Its value is “observed on Day 14 (p<0.0001) and Day 18 (p<0.01)”.

From patent US20250230207A1, “COMPOSITION” (Worg Pharmaceuticals (Zhejiang) Co., Ltd., priority 2017, published 2025)
